The text below walks through data of paper PMC7041687 (The Journal of Cell Biology, 2019).

The chains are these.
B1: His6-Thrombin-Sas4-606 (Sas4 amino acids 606–901) (domain or fragment, Drosophila, UniProt Q9VI72 606-901, looked up)
chain: RNIARLAPKVLPSATMSDILDENGRRTQSLDGTAGKPAKQREAQNRRQSSGSAQVRSRSRSLSRNKKTPYALDESYASSSSVESEEVQPPVTAPKAATPPPAANSSSDFKREITNADGSKDIWYPNGNLKKISADGMNLRMLYFNKDIKETNIREGTVKYYYAETNTWHTSYLDGLEILEFPNGQTEHRRKDGTVEIHFPNNSIKIVDPSDTEKLEEWRYADGTHLVQLRNGDKILNLPNGQKEIHTKLNKRREYPDGTVKLVYPDGSQETRYSNGRVRLKDKDGKLIMDTDYAKY

Test in all cases: BLI
(In general: Biolayer interferometry detects binding as a change in optical thickness at a sensor tip.)

For assay [1], the target named is T1, Ana2 full length, wild type, nonphosphorylated (purified) (Drosophila, UniProt Q9XZ31 1-420).
T1 sequence (looked up): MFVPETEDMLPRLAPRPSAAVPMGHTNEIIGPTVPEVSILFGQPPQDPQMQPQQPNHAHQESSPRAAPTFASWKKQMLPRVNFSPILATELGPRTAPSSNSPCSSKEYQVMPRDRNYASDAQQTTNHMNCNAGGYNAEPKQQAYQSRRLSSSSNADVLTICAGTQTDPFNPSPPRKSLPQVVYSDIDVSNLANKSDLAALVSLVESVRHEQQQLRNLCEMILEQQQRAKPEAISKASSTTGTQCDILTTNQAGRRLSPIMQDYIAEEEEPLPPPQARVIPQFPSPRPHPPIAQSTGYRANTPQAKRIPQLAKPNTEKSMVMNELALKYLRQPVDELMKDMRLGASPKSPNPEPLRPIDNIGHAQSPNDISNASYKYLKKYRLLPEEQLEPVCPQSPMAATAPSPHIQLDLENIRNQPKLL

The target in assay [2] is T2, Ana2 S38A full length, nonphosphorylated (purified) (Drosophila, UniProt Q9XZ31 1-420, S38A).
T2 sequence (looked up): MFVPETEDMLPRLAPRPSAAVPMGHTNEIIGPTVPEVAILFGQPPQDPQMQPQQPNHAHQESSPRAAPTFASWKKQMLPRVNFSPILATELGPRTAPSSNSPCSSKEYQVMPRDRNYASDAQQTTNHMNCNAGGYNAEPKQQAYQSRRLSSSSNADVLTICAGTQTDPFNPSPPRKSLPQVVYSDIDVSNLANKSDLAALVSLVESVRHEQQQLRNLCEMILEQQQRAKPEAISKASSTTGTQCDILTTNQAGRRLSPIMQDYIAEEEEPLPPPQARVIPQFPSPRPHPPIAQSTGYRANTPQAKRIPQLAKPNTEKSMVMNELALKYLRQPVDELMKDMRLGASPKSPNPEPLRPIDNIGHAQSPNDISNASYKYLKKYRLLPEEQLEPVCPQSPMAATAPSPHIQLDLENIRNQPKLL

Assay [3] concerns the target B1.

One may read the Kd as a measure of binding affinity in units of concentration. Read a high Kd as a looser complex.

Ends that are not written are not given here.

On to B1, for which the Kd in assay [1] came out at 26 nM; in assay [2] it was 31 nM.

B2: Ana2 1–60 (amino acids 1–60), nonphosphorylated (domain or fragment, Drosophila, UniProt Q9XZ31 1-60, looked up)
chain: MFVPETEDMLPRLAPRPSAAVPMGHTNEIIGPTVPEVSILFGQPPQDPQMQPQQPNHAHQ
B2 came in with a Kd in assay [3] of 134 nM.

B3: Ana2 1–60 prephosphorylated with purified Plk4 (domain or fragment, Drosophila, UniProt Q9XZ31 1-60, looked up)
chain: MFVPETEDMLPRLAPRPSAAVPMGHTNEIIGPTVPEVSILFGQPPQDPQMQPQQPNHAHQ
modifications: also: prephosphorylated by Plk4, sites not listed
As to B3, in assay [3], the Kd was determined as 72 nM.
